# Measured values reported in the nanobody polyreactivity screen of Harvey et al. (2022).
# Assay: yeast display, Sf9 membrane polyspecificity reagent, FACS + sequencing; frameworks hold sequencing errors
# Procedure, shortened: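 Galactose induction of a Saccharomyces cerevisiae BJ5465 synthetic nanobody display library ran 36–48 hours. The cells were then stained for 1 hour at 4 °C with 10% biotinylated, detergent-solubilized Sf9 membrane reagent, pulled down on streptavidin microbeads and FACS-sorted into low and high (top ~1%) gates on expression and reagent-binding fluorescence. Labels for polyreactivity follow the gate of origin.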
row,Sequence,polyreactivity (PSR sort gate)
1,QVQLVESGGGLVQAGGSLRLSCAASGFIFDRNAMGWYRQAPGKERELVAAISKSGGSTYYADSVKGRFSISRDNAKNTVYLQMNSLKPEDTAVYYCAADRPTIRYNSWGQGTQVTVSS,high polyreactivity
2,QVQLVESGGGLVQAGGSLRLSCAASGRTFYFYAMGWYRQAPGKERELVAGISWRGVSTYYADSVKGRFTISRDNAKNTVYLQMNSLKPEDTAVYYCAADIGRHTDNYDPRYDYWGQGTQVTVSS,low polyreactivity
3,QVQLVESGGGLVQAGGSLRLSCAASGNIFYPNAMGWYRQAPWKERELVARISWRGVSTYYADSVKGRFTISRDNAKNNVYLQMNSLKPEDTEVYYCNVRPYYGRTRIKYDYWGQGTQVTVSS,high polyreactivity
4,QVQLVESGGGLVQAGGSLRLSCAASGSTLQVYAMGWYREAPGKERELVAAISKSGGRTYYADSVKGRFSISRDNAKNTFYLQMNSLKPEDTAVYYCAADVGTAQSTYGYWGQGTQVTVSS,high polyreactivity
5,QVQLVESGGGLVQAGGSLRLSCAASGSILGTNAMGWYRQAPGKESELVAAINYSGGNTYYADSVKGRFTISRDNAKNTVYLQMNSLKPEDTAVYYCAAVNGWRRVKRFDYWGQGTQVTVSS,high polyreactivity
6,QVQLVESGGGLVQAGGSLRLSCAASGFTSGYNLMGWYRQAPGKERELVAAISWRGTSTYYADSVKGRFTISRDNAKNTVYLQMNSLKPEDTAVYYCAARQRWYWRGYDYWGQGTQVTVSS,high polyreactivity
7,QVQLVESGGGLVQAGGSLRLSCAASGSTFDGNAMGWYRQAPGKERELVAAITRAGRTSYADSVKGRFTISRDNAKNTVYLQMNSLKPEDTAVYYCAKGGYDYWGQGTQVTVSS,low polyreactivity
8,QVQLVESGGGLVQAGGSLRLSCAASGGIFGSYAMGWYRQAPGKERELVAAITSGGRTTYADSVKGRFTISRDNAKNTVYLQMNSLKPEDTAVYYCNAGRVFGNYFFRVYYYWGQGTQVTVSS,high polyreactivity
9,QVQLVESGGGLVQAGGSLRLSCAASVFTIPRYAMGWYRQAPGKETELFAAITSGGSTYYADSVKGRFTISRDNAKNTVYLQMNSLKPEDTAVYYWASRAVWSSWGSRYDSWGHGTQVTVSS,high polyreactivity
10,QVQLVESGGGLVQAGGTLRLSCAASGSTFGGYAMGLYRQAPGKERELVAAITWSGDTYYADSVKGRFTISRDNAKNSVYLQMNSLKPEDTAVYYCAAYSRVGPYRYAYWGQGTQVTVSS,high polyreactivity
11,QVQLVESGGGLVQAGVSLRLSCAASGIFRRYAMGWYIQAPGKERELVAAISSNGGSTYYADSVKGRFTISRDNAKNTVYLQMNSLKPEDTAVYYCNADVYVWNYYYWGQGTQVTVSS,high polyreactivity
12,QVQLVESVGGLDQAGGTLRLSCAASALIFAYYAMGGYRQAPGKERELVAAITSSGTSTYYADSVKGRFTISRDNAKNTVYLQMNSLTPEDTAVYYCAASDRRLTGVGADEYWGQGTQVTVSS,high polyreactivity
13,QVQLVESGGGLVQAGGSLRLSCAASGRTFYFYAMGWYRQAPGKERELVAAISSGASTYYADSVKGRFTISRDNAKNTVYLQMNSLKPEDTAVYYCAAEFWTQWSGYEYWGQGTQVTVSS,high polyreactivity
14,QVQLVESGGGLVQAGGSLRLSCAASGRIFGAYAMGWYRQAPGKEREFVAAITWRGGSTYYADSVKGRFTISRDNAKNTVYLQMNSLKPEDTAVYYCAADQFTGSVWAYYYWGQGTQVTVSS,high polyreactivity
15,QVQLVESGGGLVQAGGSLRLSCAASGITFDVYAMGWYRQAPGKERELVAAISSVGGTYYADSVKGRFTISRDNAKNTVYFQMNSLKPEDTAVYYCNTDGYVGSIRSGLYIYEYWGQGTQVTVSS,low polyreactivity
16,QVQLVESGGGLVQAGGSLRLSCAASGSTFVPNTMGWYRQAPGKDRELVAGITSGGSTYYADSVKGRFTISRDNAKNTVYLQMNSLKPEDTAVYYCAAGKHVTFSYEYRMDYWGQGSQVTVSS,low polyreactivity
17,QVHLVETGGGLVQAGGSLRLSCAASGSIFVSNAKGWYRQAPGKERELVAAISQSGGSTYYADSVKGRFTISRDYAKNTVYLQMNSLKPEDTAVYYCATPIRSGFRIYDYWGQGTQVTVSS,low polyreactivity
18,QVQLVESGGGLVQAGGSLRLSCAASGGTFYYNAMGWYRQAPGKERELVAAITSGDRTYYADSVKGRFTISRDIAKNTVYLQMNSLKPEDTAVSYCARAGKTRAGYDYWGQGTQVTVSS,high polyreactivity
19,QVQLVESGGGLVQAGGSLRLSCAASGFTFTYYSMGWYRQAPGKERELVARINSCGNTNYADSVKGRFTISRDNAKNTVYLQMNSLKPEDTAVYSCARDACNRYDYWGQGTQVTVSS,low polyreactivity
20,QVQLVESGGGLDQAGGSLRLSCAASGFTFYVYTMGWYRQAPGKERELVARITSRAGRTYYADSVKGRFTISRDNAKNTVYLQMNSLKPEDTAVYYCNTRDFSGYVHALSLYDYWGQGTQVTVSS,high polyreactivity
21,QVQLVESAGGLVQAGGSLRLSCAASGNTFPPYPMGWYRQAPGKERELVAAISCGGRTYYADSVKGRFTISRDNAKNTVYLQMNSLKPEDTAVYYCAVYVPNYYSYHYDYWGQGTQVTVSS,high polyreactivity
22,QVQLVESGGGLVQAVGSLRLSCAASGFISKYYAMGWYRQAPGKERELVASISRDGSTSYADSVKGRFTISRDNAKNTVYLQMNSLKPEDTAVYYCAAPSYRTRYYYWGQGTQVTVSS,high polyreactivity
